According to the supplement of paper PMC9170038:

Tested on: K4 kissing-loop RNA reporter
Test: apparent KD of K4 kissing-loop reporter; higher = weaker reporter binding
Settings: Eterna round: R107
Experimental: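 RNA-MaP round R107: designed RNA switches with theophylline, tryptophan, arginine or FMN aptamers are transcribed on-chip within common flanks. They are titrated with a labelled K4 kissing-loop RNA reporter in RNA-MaP buffer (100 mM Tris pH 7.5, 80 mM KCl, 4 mM MgCl2), without ligand or with the indicated ligand. Median apparent KD per design.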

[1] = input ligand: theophylline 20 uM
[2] = input ligand: tryptophan 2.4 mM
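Note: bound reporter read as fluorescence of individual clusters on recovered sequencing chips by microscopy, with normalized cluster intensities fitted with a binding model.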

Sequence	apparent KD of K4 kissing-loop reporter (input ligand: FMN 200 uM) [nM]	apparent KD of K4 kissing-loop reporter (input ligand: arginine 13.2 mM) [nM]	apparent KD of K4 kissing-loop reporter (input ligand: none) [nM]	apparent KD of K4 kissing-loop reporter [1] [nM]	apparent KD of K4 kissing-loop reporter [2] [nM]
UUAGUCUAGAGAAGGAGCGAGUGAUGUUUGCUAAGCUAUAUAAUAAAAUAUAGCAAAUUUACUCAGGUAGGUCGCUCUAGACAUU [AK3 Exc Arginine B]	153	122	98	149	74.2
AAUUUACAAUAAUCAUUUAAAGGAUCAGAAGGAGCGUGUUAUAACACAGGUAGGUCGCUGAGCGAGUGAUGUUCGCUAUAUACAA [JR_ExcArginiA_Sub002]	76.3	97.7	90.8	99.8	64.5
GUCAAGGGUGCGGCCGCCACUUCUAGUGAUGUUAGUUUGUCUUCGUUCAACCGGCGUCUGCACGCAAGGACCGGGCACCAGCGAC [theeternabot_exclusion_KL_Trp_B_10]	552	350	567	636	360
AGACUACUGACAGGAUAUGGCAUCCUGGUCGUAUACCGAAAGGUAUACGAUUUUCUUCUAGUGAUGUUAGAAGGGUCGGUAGUCA [Omei KL FMN B Exc B v15]	128	86.3	97.3	89.2	92.7
GGAUAGGACAGAGGAUAUGGGCUAGGCAAGAAUAACUUGUCUAGCAAAUCCAUGAGGAGUGAUGUUCCAGAAGGCUGUCCUAUCG [FmnBX 1 - #SwitchBubble #StraticStem #DoubleMagnetSystem]	375	167	114	177	143
AGGAUCCGUCGACAAAAGUCGACAUAAUCCAAGGAUAUGACGAAAGUCAGAAGGUGGACAUAAGUCCAGUGAUGUUGGAGGAUCC [FmnA 16 #SwitchBubble #K4Late]	766	283	427	557	351
CCGGAUUAUGCGGCCGCCACUGAGAAAUUGGAGGUACGCCCUCCCGAUAGUGAUGUUAUCCAUUACAGGACCGGGCAUCUCCUCU [theeternabot_sameState_KL_Trp_B_23]	779	421	893	500	325
GCCGUAGAUUGAAGGAGCGUGGACCUAUCGCUUGAACAGUGAUGUUGUUUAUCUAGGGAGCCGCAGGUAGGUCGCAAUCUACGGC	470	355	478	370	386
GAUAUAGUGAUGUUAUAUACUGAUAGACAACGAGGACCGGUACGGCCGCCACUCGAGAGGGUGAAAAUGGUGAUAAAAUAAUGAU [#03 K4 Tryptophan A Exclusion]	349	271	381	322	274
AAAUUUAAUAUAUUUAAAUAAAUAUGUGAUACCAGACAUUUAUAAGUCCCUUGGCAGCACAAUGCAGUGAUGUUGCUUAUAAUAA [JR_SSTheophyA_Sub017]	85.6	114	88.8	192	73.5
UAACAGUCUACGGCCGCCACUGACAAUCGGCAAGCAACAUGUGGGUGCGUAGUGAUGUUACAUAUCAGGACCGGGUAAGACAAAU [theeternabot_sameState_KL_Trp_B_32]	327	392	235	345	438
GCCAGUGAUGUUGGCAUUUCGAGCCAUGAAGGAGCGCACGGAAGUGCAGGUAGGUCGCAUGGUACUUAGGAUAUUAUCCUAAGUA [Antearxe]	180	169	224	178	144
GGAUAGGAUAGAGGAUAUGGCUUACACAGAAAUAACUUGUUGUGUUUAUCCAUAGGGAGUGAUGUUCCAGAAGGCUGUCCUAUCG [MatMod 19 - Jieux - Exclusion - FMN B]	743	197	210	232	161
UAGUCAUACAGAGGAUAUCGUAUGAGUGAUGUUCAUACGAUAUAAUCUAAUUGUAUAGAUGUUCGACGAGAAGGCUGUAUGACUA [FMN B Ex t1a]	116	84.5	94.9	91.3	92.6
CAUACGCAUGGAGGAUAUGAGAUUUCUCAUGUCAUUUAAUAUUCUCAGUGAUGUUGAGAAUUUGGCUCAGAAGGCCAUGUGUAUG [Ex FMN B 20]	254	465	508	426	403
ACCAUCAAAGAUGGCCUCGACACCGCUGAUACCAGAGUGAAAACACUCCCUUGGCAGCAGGUGAGUGAUGUUCACAGUCGAAGGA [Omel KL Theo A SS B v1]	492	464	641	538	470
CGUUUAUAGCAGGAUACCAGUACCCAUUAAGUACGUUAAUAGUAGAGUGAUGUUCUAAAGUACCCUUGGCAGCUUCCCGUGACCC [ExTheophylB.X]	103	164	124	176	94.1
AAAUAUAGUGAUGUUAUAUAUAUAUGUGAUACCAGAGAAAGAAAACUCCCUUGGCAGCACGAGAGAGAAUUUUUUUUUUAUAUAU [AstrosSSTheA#1]	362	398	552	414	245
CGAAUGGAACUAUUGAACAUUUGUAUUGGCAAGGAUAUCGGGCUAUCGAGAAGGUGCUAUUUGGGCAGUGAUGUUGCCGAUUUAA [theeternabot_sameState_KL_FMN_A_10]	43.3	94.4	54.1	90.9	50
GUAUCGCUAGGAGGAUAUGUCGUUUUUCAUAGCAAUGGCUGUGCGGAGUGAUGUUCCGAUUUACCGGCAGAAGGCCUAGUGAUAC [FMN B 28]	118	104	92.9	106	89.8
CAUACGCAUGGAGGAUAUGAGAUUACUCGUAUCAUUUAAUAUUCUCAGUGAUGUUGAGAUUUGGGCUCAGAAGGCCAUGUGUAUG [Ex FMN B 16]	393	261	290	324	288
AUUCGUUUAUGUGAUACCAGACUUUGCAGUGAUGUUGCUUUAAUUAAAGAUGUUUAGUUUGUCCCUUGGCAGCACUAUUUAUUUA [JR_SSTheophyB_Sub001]	54	113	68.4	129	48.8

Sequence	apparent KD of K4 kissing-loop reporter (input ligand: FMN 200 uM) [nM]	apparent KD of K4 kissing-loop reporter (input ligand: arginine 13.2 mM) [nM]	apparent KD of K4 kissing-loop reporter (input ligand: none) [nM]	apparent KD of K4 kissing-loop reporter [1] [nM]	apparent KD of K4 kissing-loop reporter [2] [nM]
AAACUUGCAGUGAUGUUGCAAGUAGGUGAUACCAGCAUCGAAAGAUGCCCUUGGCAGCACCAUCACUGUAAGUAGGUGCUGUCAA [(H1)-(H2)-(T1)-(T2)-(H)'-(T)'_Design5]	99.3	88.5	105	111	103
AGCUUGGGUUCGGCCGCCACUCCACCCUUAGAAGUGAUGUUUCUCAUGCAUACGCGUCGUCAGAUGAGGACCGGGAAUGUAGUUG [theeternabot_exclusion_KL_Trp_B_24]	209	444	354	351	214
UGAUACCAGACGGCCGCCACUACACCAGUCAAAGACUGGAUGUGAUGUUUGACCAGUGAUGUUGGUAGGACCGGGUCUGGUAUCU [TrypBX 5 #Palindromic #SwitchBubble #StaticStem]	500	394	450	494	326
AUGCGCAGCCUGCUUACGUAUGAGCCGGAAGGAGCGGCAGAAUUGCCAGGUAGGUCGCCGGCCCAGUGAUGUUGGGAUGGUGUGG [Atusqubela]	279	167	343	419	264
UUAUAAUUCAGUGAUGUUGAAAAUAUAACAGAGGAUAUGCGUUUAAGCAGAAGGCUGAAAUACUAUACUUUAAUCUAUUAAAUUU [JR_SSFMNA_Sub019]	232	377	313	332	212
AGAUUCGACACGGCCGCCACUCGUGGAUCUUGGUUGAGAGAUGAAAUAGAGUGAUGUUCUAAUACGAGGACCGGGUGUUGAGUCU [KL-SSTryp-B23]	221	165	200	177	174
GCAAAGGCCCAUCGGAAUUCGAGACCAGCACGAGGACCGGUACGGCCGCCACUCGUGCAGUGAUGUUGCACGAAUGGGAAACCGC [Oninanso]	112	103	125	118	147
UCCUUUGUUGCCAGUGAUGUUGGACAGGAAGGAGCGGGCAUAAGCCCAGGUAGGUCGCCUGUCAACUUUCUUAUAGCCCUAAGGU [KL-XArg-A16]	343	329	372	323	337
AGGAUGUAGUGAUGUUAUAUAAGAAGUAAACGAGGACCGGUACGGCCGCCACUCGAAGCGGCUACUAGCGCGUUGCGAGGUGCGC [ExTryptoA.Cc]	391	451	372	370	286
AGUAUGUAAUAUGGCAUAUUUAGAACUGAAGGAGCGCCGAAUAAGGCAGGUAGGUCGCGGAAUCAUGAGUGAUGUUCAUGACUAU [KL-SSArg-A26]	80.6	116	123	126	91.1
ACGCGCGCGAGUGAUGUUCGGAGCGGCUGGCAGGAUAUGCCGCAAGGCAGAAGGGUCGUGGCGCGUCCAGGGUAACCUGGACGCG [#2 Exclusion - FMN A Attempt #28 (HarryS)]	190	401	466	391	455
GCUAUGGUAGGAAGGAGCGCUUAUUUAUUUUUAAGAGUGAUGUUCGAUAGUAGAUAUUUAAAGCAGGUAGGUCGCCUACUAUAGC [Arginine B K4 13]	122	159	108	136	71.5
GCGCAUGUUAAAGGAUAUAGCAGGUGAUACAAGAAAGUGAGUGAUGUUUAUGUAGAUGAUGAUAUGUUAGAAGGUUAACAAACGC [abcdefghijklmno]	922	624	809	867	564
CCGAAGAACCAGUGAUGUUGGUUGACUAGACAGGAUAUGAGCAACAUCAGAAGGGUCUGGCUUCGGGAGUGAGUCGCGCUGACUU [Reverigeed]	260	192	319	254	314
GGAUAGGACAUAGGAUAUGGUAGUGAUGUUACCAAACUGGUUAAACAUGUCAGAAAACUGGCAUGACCAGAAGGAUGUCCUAUCG [FmnBX 27 U11+A75]	85.2	63.2	66.3	58.8	63.5
AGGUACAAAAGUACCGCUAGAUCCACGGAAGGAGCGCCCGAAAGGGCAGGUAGGUCGCCGGGCAGUGAUGUUGCCGGAUCUAGCA [Omei KL Arginine A SS A v6]	162	163	156	181	139
CGCGCGCGUUUGAGAGGGUGCGCGCGAAGUGAGGAUAUUUAGGGAGAAAGAAGGCACUAUAAAAUAUAGUGAUGUUAUAUAAGGG [SSFMNA.G]	431	114	382	187	344
AAAUAAAUCAGAGGAUAUUCUUCCCACGUCGAAGUACCGUGCUUGAUGGAGUGAUGUUCGAUCAGAGAAGAAGGCUGAUAAAUAA [Same State FMN B GF 19]	732	395	917	621	338
AAACGUUGUUGCGAUACCAGCUGAUCGGAAACGAUCAUGCUGGAGUGAUGUUCCAGGAAAAGCCCUUGGCAGCGCAACGACGAAA [MAT - Same State Theophlline B - Mod of Eli - D30]	276	134	228	296	179
UCCUGCAAUCGACCACGAAAGUGGUUCGAUACCAGAGUCGAAAGACUCCCUUGGCAGCGAGUGAUGUUCGAGCAGGUAAAAUAAA	438	436	567	467	472
GCCGCAAGGAUAGCAGCAAUAGGCGCUCGCUAGGAUAUCUGGAAACAGAGAAGGAGCUGGAGUGAUGUUUUACCUCCUAAAAUUA	517	1900	682	210	1070
